Here are results for one molecule from paper PMC12615776, “Conformational alteration of DOCK5•ELMO1 signalosome on lipid membrane” (Communications Biology, 2025).

For the test, the target named is T1, human ELMO1, full length (residues 1–727), tag cleaved (human, UniProt Q92556 1-727).
T1 construct: human ELMO1, full length, residues 1–727; Purified as a complex with DOCK5; also called engulfment and cell motility 1; source: FreeStyle 293-F cells, co-expressed with DOCK5, purified (Streptavidin Sepharose, TEV cleavage, SEC Superose 6); not shown: FLAG, N-terminal, cleaved
T1 sequence (Q92556 whole entry, the tested form may be a part): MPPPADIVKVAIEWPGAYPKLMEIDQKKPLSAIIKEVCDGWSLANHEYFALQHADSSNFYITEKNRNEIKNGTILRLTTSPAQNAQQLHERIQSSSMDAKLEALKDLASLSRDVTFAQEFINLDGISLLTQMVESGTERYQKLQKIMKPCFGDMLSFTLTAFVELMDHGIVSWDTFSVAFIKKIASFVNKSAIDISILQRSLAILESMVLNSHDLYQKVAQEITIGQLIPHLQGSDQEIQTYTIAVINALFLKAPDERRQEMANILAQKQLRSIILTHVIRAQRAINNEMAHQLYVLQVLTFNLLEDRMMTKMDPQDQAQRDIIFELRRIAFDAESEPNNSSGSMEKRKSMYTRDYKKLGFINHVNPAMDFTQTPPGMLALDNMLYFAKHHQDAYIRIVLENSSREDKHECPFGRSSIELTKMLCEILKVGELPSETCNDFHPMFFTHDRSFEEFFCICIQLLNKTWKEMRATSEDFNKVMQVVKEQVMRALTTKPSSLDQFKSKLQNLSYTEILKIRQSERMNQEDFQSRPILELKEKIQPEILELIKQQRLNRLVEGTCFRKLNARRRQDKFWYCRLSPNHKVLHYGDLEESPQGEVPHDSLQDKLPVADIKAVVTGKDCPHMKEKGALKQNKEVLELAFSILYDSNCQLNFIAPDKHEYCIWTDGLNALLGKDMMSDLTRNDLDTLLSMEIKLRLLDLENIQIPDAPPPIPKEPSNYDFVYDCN
As to the kind of experiment: cryo-EM structure; purified DOCK5•ELMO1 complex mixed with a two-fold molar excess of Rac1^G15A-His10 and RhoG^Q61L-His10, pre-incubated on ice at least 1 h in 20 mM HEPES-NaOH pH 7.0, 150 mM NaCl, 1 mM MgCl2 (final 0.4 μM); bound to a lipid monolayer-coated grid [67PC/21PA/6PIP3/6DOGS-NTA Ni (mol%)]; single-particle analysis, C2, 6.98 Å (local 7.52 Å). Conditions: both partners purified.

B1: human RhoG (residues 1–191, Q61L mutant), C-terminal His10 (natural protein)
chain: not shown
notes: human RhoG, residues 1–191, Q61L; 10 μM GTP and 1 mM MgCl2 were added during purification to obtain the active form; Anchored to the lipid monolayer through His10 and DOGS-NTA(Ni); also called RhoG^Q61L; constitutively active mutant of RhoG; source: E. coli cell-free protein synthesis, purified (HisTrap, TEV cleavage, second HisTrap, SEC Superdex 75); not shown: N11 (modified natural …)
Take B1: the binding result is listed as “binds”.
